Data as given in the supplement of paper PMC10065799, “High-throughput profiling of sequence recognition by tyrosine kinases and SH2 domains using bacterial peptide display” (eLife, 2023).

What was measured:
[1] = biological target: c-Src SH2; assay: SH2 binding enrichment of the phosphorylated peptide, bacterial display (enrichment ratio); higher = better substrate or ligand; peptides without Tyr show the background
[2] = biological target: Grb2 SH2 (UniProt P62993); assay: as above
[3] = biological target: SHP2-C SH2; assay: as above
[4] = biological target: Hck (UniProt P08631); assay: phosphorylation enrichment, bacterial display (enrichment ratio); higher = better substrate or ligand; peptides without Tyr show the background
[5] = tested on: AncSZ; assay: as above
[6] = biological target: EPHB1 (UniProt P54762); assay: as above
[7] = biological target: Fyn (UniProt P06241); assay: as above
[8] = biological target: MERTK (UniProt Q12866); assay: as above
[9] = biological target: FGFR3 (UniProt P22607); assay: as above
[10] = tested on: c-Src; assay: as above
[11] = biological target: Jak2 (UniProt O60674); assay: as above
[12] = tested on: c-Abl (mouse); assay: as above
[13] = biological target: FGFR1 (UniProt P11362); assay: as above
[14] = biological target: EPHB2 (UniProt P29323); assay: as above
[15] = biological target: Fes (UniProt P07332); assay: as above
[16] = tested on: Fer (mouse); assay: as above
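Wherever SH2 binding enrichment of the phosphorylated peptide, bacterial display is given: peptide library displayed on the E. coli surface as eCPX fusions, selected cells deep-sequenced, score is each peptide's frequency after selection divided by its frequency in the input.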
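Wherever phosphorylation enrichment, bacterial display is given: 11-residue human phosphosite peptides and single-mutation variants displayed on the E. coli surface, counted by deep sequencing, each peptide's frequency after selection divided by its frequency in the unselected input library; frequency after pTyr selection over input frequency; kinase dosed for 20-30% of maximal phosphorylation in three min.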

Sequence of EPHB2 (P29323 whole entry, looked up): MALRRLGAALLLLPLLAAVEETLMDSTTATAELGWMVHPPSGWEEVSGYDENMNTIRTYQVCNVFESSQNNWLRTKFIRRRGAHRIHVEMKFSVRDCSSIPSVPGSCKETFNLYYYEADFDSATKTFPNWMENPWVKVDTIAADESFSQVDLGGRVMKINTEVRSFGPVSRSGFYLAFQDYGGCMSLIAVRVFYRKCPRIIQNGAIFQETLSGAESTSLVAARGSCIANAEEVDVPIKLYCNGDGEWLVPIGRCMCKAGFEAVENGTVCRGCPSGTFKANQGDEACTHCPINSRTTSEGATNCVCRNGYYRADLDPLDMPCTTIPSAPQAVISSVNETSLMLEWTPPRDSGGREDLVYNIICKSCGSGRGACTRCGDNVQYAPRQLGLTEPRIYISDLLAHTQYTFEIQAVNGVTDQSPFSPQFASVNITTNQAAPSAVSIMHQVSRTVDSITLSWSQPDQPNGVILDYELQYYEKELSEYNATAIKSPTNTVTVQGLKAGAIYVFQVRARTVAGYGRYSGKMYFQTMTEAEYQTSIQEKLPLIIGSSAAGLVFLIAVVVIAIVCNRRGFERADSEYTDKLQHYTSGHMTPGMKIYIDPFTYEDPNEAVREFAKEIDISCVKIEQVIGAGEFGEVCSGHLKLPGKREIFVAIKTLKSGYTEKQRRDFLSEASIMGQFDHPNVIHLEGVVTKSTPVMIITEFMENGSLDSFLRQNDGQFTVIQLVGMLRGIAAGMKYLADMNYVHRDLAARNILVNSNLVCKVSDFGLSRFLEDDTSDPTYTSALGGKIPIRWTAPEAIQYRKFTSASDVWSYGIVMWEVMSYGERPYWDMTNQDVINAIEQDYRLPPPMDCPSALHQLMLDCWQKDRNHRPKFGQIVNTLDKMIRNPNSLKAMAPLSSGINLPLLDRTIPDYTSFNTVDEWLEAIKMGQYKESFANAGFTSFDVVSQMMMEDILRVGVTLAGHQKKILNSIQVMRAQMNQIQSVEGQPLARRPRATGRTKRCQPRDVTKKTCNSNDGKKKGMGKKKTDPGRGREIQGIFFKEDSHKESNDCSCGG
Sequence of EPHB1 (P54762 whole entry, looked up): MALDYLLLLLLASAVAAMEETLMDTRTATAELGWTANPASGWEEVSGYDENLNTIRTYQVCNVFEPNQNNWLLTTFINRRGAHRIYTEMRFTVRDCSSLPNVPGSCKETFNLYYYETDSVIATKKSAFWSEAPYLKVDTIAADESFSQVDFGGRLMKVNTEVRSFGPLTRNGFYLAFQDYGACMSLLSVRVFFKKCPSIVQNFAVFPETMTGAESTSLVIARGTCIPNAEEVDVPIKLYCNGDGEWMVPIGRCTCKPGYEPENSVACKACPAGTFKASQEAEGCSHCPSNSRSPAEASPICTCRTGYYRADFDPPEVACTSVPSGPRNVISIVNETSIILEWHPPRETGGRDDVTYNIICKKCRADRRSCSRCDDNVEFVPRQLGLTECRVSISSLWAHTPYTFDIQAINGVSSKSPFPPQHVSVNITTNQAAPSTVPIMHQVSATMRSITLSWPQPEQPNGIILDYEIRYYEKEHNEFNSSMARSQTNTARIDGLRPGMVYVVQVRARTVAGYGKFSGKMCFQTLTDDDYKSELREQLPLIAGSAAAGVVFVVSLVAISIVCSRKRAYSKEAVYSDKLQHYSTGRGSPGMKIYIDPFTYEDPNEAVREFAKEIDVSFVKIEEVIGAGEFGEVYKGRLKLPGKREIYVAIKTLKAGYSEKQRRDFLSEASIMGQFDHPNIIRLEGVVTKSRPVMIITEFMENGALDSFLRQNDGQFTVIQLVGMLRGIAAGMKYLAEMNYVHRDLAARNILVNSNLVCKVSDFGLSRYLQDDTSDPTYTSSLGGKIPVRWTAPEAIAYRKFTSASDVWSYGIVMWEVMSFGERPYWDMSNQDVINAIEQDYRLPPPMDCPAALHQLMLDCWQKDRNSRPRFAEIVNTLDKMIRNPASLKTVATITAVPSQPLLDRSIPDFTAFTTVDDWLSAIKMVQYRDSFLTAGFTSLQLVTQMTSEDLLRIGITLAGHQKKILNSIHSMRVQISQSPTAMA
Sequence of FGFR3 (P22607 whole entry, looked up): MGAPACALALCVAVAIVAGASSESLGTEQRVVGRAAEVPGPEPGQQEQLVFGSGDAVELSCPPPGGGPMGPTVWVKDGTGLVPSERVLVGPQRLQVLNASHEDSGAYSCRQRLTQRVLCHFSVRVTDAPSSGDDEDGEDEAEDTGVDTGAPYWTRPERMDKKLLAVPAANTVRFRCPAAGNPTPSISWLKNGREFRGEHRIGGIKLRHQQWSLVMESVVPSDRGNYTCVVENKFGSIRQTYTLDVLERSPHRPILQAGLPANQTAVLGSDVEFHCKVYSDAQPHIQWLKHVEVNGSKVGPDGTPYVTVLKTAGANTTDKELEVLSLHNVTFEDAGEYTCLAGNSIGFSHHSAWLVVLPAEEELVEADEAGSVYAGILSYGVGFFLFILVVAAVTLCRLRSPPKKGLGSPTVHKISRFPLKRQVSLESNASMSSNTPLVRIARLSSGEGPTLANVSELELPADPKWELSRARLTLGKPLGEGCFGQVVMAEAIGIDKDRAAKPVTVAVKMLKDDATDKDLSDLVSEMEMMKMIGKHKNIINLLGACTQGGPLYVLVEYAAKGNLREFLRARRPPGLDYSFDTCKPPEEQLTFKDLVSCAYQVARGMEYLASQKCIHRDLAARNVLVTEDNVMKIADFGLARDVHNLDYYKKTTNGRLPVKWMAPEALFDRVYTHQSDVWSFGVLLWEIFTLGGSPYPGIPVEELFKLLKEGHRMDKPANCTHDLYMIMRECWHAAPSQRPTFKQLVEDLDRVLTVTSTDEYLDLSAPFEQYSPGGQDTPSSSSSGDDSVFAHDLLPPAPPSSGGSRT
Sequence of Fes (P07332 whole entry, looked up): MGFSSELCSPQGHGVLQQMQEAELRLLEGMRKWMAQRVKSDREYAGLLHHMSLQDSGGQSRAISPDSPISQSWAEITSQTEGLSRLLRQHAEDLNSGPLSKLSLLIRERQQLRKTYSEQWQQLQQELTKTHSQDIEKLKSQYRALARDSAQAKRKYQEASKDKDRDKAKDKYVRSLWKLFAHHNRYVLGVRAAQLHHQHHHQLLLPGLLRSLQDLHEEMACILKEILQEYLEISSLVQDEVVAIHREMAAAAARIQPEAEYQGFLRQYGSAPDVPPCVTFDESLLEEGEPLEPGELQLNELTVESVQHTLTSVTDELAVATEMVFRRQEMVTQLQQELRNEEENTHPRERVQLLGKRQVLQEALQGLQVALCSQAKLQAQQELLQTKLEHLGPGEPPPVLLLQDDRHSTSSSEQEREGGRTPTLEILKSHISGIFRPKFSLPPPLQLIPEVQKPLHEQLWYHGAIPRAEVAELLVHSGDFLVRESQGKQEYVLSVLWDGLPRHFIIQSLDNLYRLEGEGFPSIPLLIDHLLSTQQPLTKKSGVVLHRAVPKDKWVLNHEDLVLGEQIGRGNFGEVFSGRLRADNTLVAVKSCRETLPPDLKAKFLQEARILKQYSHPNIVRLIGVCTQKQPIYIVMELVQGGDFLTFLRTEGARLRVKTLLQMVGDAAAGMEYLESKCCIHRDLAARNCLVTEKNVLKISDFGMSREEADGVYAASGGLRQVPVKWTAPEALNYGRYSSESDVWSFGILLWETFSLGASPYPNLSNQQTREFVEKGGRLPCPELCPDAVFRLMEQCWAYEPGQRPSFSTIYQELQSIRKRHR
Sequence of Fyn (P06241 whole entry, looked up): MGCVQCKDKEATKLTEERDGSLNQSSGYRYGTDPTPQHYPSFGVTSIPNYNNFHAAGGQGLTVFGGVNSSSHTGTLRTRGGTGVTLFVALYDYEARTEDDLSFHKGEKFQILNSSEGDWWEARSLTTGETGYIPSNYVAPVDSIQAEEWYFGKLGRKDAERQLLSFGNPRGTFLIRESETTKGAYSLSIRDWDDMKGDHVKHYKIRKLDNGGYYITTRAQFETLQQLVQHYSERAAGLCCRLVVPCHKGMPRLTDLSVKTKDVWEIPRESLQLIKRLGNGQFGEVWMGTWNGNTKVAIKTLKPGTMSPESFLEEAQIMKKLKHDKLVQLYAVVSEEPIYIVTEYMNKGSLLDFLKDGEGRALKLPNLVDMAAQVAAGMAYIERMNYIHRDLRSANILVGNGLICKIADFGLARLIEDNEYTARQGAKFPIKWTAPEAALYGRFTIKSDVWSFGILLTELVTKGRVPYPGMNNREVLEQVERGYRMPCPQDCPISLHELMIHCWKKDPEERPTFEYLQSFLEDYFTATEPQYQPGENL
Sequence of Grb2 SH2 (P62993 whole entry, looked up): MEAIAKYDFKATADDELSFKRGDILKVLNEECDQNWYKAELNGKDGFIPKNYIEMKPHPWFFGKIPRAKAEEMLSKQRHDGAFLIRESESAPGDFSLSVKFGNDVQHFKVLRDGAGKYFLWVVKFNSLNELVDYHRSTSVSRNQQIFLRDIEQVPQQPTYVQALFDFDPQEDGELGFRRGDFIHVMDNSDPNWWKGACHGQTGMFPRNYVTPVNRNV
Sequence of Hck (P08631 whole entry, looked up): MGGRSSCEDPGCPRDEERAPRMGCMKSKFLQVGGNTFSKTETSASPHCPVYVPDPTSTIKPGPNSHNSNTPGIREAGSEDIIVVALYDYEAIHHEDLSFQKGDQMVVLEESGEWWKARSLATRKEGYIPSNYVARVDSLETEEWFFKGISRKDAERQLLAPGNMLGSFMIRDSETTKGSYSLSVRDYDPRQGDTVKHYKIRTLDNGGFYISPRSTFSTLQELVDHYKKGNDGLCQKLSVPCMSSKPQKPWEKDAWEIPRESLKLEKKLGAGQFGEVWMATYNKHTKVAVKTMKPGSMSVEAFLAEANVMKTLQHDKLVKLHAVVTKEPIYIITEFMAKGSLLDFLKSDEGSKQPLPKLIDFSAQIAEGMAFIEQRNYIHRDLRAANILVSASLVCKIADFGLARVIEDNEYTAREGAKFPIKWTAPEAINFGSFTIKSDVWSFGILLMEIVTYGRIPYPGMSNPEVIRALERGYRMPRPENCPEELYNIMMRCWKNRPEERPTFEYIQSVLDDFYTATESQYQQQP

| Sequence | SH2 binding enrichment [1] | SH2 binding enrichment [2] | SH2 binding enrichment [3] | phosphorylation enrichment [4] | phosphorylation enrichment [5] | phosphorylation enrichment [6] | phosphorylation enrichment [7] | phosphorylation enrichment [8] | phosphorylation enrichment [9] | phosphorylation enrichment [10] | phosphorylation enrichment [11] | phosphorylation enrichment [12] | phosphorylation enrichment [13] | phosphorylation enrichment [14] | phosphorylation enrichment [15] | phosphorylation enrichment [16] |
| --- | --- | --- | --- | --- | --- | --- | --- | --- | --- | --- | --- | --- | --- | --- | --- | --- |
| SVTCTYSPARN [TP53_Y126_L130R] | 0.371 | 0.793 | 0.613 | 0.56 | 1.22 | 0.576 | 0.489 | 0.449 | 0.756 | 0.555 | 1.06 | 0.84 | 0.53 | 0.654 | 1.37 | 0.554 |
| SVTCTYSPGLN [TP53_Y126_A129G] | 0.444 | 0.723 | 0.469 | 0.595 | 1.42 | 0.761 | 0.525 | 0.454 | 0.998 | 0.612 | 1.46 | 1.05 | 0.511 | 0.686 | 1.57 | 0.609 |
| SVVVPYELPEV [TP53_Y220_P222L] | 1.78 | 0.765 | 0.614 | 0.58 | 1.65 | 0.643 | 0.503 | 0.47 | 0.723 | 0.545 | 1.09 | 0.848 | 0.553 | 0.659 | 1.29 | 0.581 |
| SYCYRYRCAAR [SUMF1_Y344] | 0.419 | 0.717 | 0.608 | 0.386 | 0.789 | 0.309 | 0.484 | 0.549 | 0.448 | 0.54 | 0.728 | 0.776 | 0.538 | 0.512 | 0.651 | 0.37 |
| SYSGEYGSGGG [ZG16_Y30_G32S] | 0.495 | 0.782 | 0.794 | 0.534 | 0.763 | 0.454 | 0.417 | 0.53 | 0.512 | 0.545 | 0.727 | 0.596 | 0.419 | 0.429 | 0.696 | 0.462 |
| TACNPYKPPGP | 0.786 | 1.07 | 0.838 | 0.384 | 0.605 | 0.733 | 0.469 | 0.393 | 0.437 | 0.46 | 0.521 | 1.14 | 0.354 | 0.417 | 0.717 | 0.449 |
| TCRPPYFHRNC [HGD_Y333_F329C_YF] | 1 | 1.45 | 0.9 | 0.548 | 1.05 | 0.215 | 0.4 | 0.758 | 0.568 | 0.314 | 0.914 | 0.878 | 0.255 | 0.686 | 1.06 | 0.334 |
| TDEYEYDELIV [TGM1_Y136] | 0.786 | 1.07 | 0.761 | 0.775 | 1.3 | 0.588 | 0.57 | 0.436 | 0.805 | 0.454 | 0.785 | 0.705 | 0.664 | 0.566 | 1.2 | 0.526 |
| TDLAFYLVRKG [ASL_Y376_YF] | 0.693 | 1.07 | 0.662 | 0.67 | 1.4 | 0.65 | 0.545 | 0.506 | 0.988 | 0.361 | 0.946 | 0.611 | 0.497 | 0.725 | 1.27 | 0.541 |
| TDVSLYPSGGT [TENM4_Y399] | 0.405 | 0.577 | 0.8 | 0.409 | 0.676 | 0.331 | 0.353 | 0.435 | 0.428 | 0.269 | 0.578 | 0.585 | 0.355 | 0.512 | 0.552 | 0.535 |
| TEAEPYYRSLR [NPHS1_Y1138] | 0.707 | 0.961 | 0.864 | 0.503 | 0.7 | 0.422 | 0.373 | 0.371 | 0.609 | 0.512 | 0.809 | 0.722 | 0.458 | 0.425 | 0.824 | 0.425 |
| TEAGNYKLCFD [TMED1_Y103_D102N] | 0.466 | 0.924 | 0.538 | 0.549 | 1.12 | 0.53 | 0.505 | 0.453 | 0.749 | 0.424 | 1.17 | 0.785 | 0.627 | 0.577 | 1.05 | 0.492 |
| TESNNYIFKTL [FAM83B_Y637_YF] | 0.492 | 0.879 | 1.2 | 0.643 | 1.26 | 0.604 | 0.528 | 0.664 | 0.82 | 0.642 | 0.926 | 0.762 | 0.645 | 1.06 | 1.12 | 0.597 |
| TFEYRYLEDQD [CNOT3_Y746_R750Q] | 0.66 | 0.772 | 0.478 | 0.637 | 1.22 | 0.566 | 0.438 | 0.44 | 0.823 | 0.54 | 0.916 | 0.673 | 0.77 | 0.553 | 1.15 | 0.518 |
| TFSPPYYHRNC [HGD_Y333_R330S] | 0.703 | 1.06 | 0.859 | 0.531 | 0.822 | 0.45 | 0.5 | 0.526 | 0.654 | 0.535 | 0.83 | 0.612 | 0.565 | 0.52 | 0.813 | 0.497 |
| TIQRMYGCDVG [HLA-A_Y123_I121R] | 0.479 | 0.636 | 0.968 | 0.45 | 0.761 | 0.504 | 0.442 | 0.448 | 0.598 | 0.594 | 0.789 | 0.775 | 0.56 | 0.57 | 1.05 | 0.46 |
| TIQSMYGCDVG [HLA-B_Y123_L119I] | 0.581 | 0.909 | 1.01 | 0.502 | 0.886 | 0.502 | 0.427 | 0.559 | 0.602 | 0.517 | 0.794 | 0.68 | 0.579 | 0.48 | 1.04 | 0.48 |

| Sequence | SH2 binding enrichment [1] | SH2 binding enrichment [2] | SH2 binding enrichment [3] | phosphorylation enrichment [4] | phosphorylation enrichment [5] | phosphorylation enrichment [6] | phosphorylation enrichment [7] | phosphorylation enrichment [8] | phosphorylation enrichment [9] | phosphorylation enrichment [10] | phosphorylation enrichment [11] | phosphorylation enrichment [12] | phosphorylation enrichment [13] | phosphorylation enrichment [14] | phosphorylation enrichment [15] | phosphorylation enrichment [16] |
| --- | --- | --- | --- | --- | --- | --- | --- | --- | --- | --- | --- | --- | --- | --- | --- | --- |
| TLKDVCDDGKY [RPS6KA3_Y483_Y483C] | 0.594 | 1.05 | 0.851 | 0.622 | 0.93 | 0.569 | 0.434 | 0.437 | 0.594 | 0.507 | 0.841 | 0.664 | 0.53 | 0.624 | 1.2 | 0.456 |
| TMKSHYMELYD [BBS2_Y644_R643H] | 10.3 | 1.22 | 1.84 | 0.953 | 0.807 | 0.971 | 0.69 | 1.34 | 0.64 | 1.2 | 0.864 | 0.693 | 0.568 | 0.683 | 1.01 | 0.453 |
| TMKSRYMELFD [BBS2_Y644_YF] | 4.89 | 0.945 | 0.634 | 0.48 | 0.765 | 0.523 | 0.447 | 0.42 | 0.667 | 0.418 | 0.71 | 0.613 | 0.482 | 0.437 | 0.914 | 0.382 |
| TNLVPYPRIHF [TUBA1A_Y262] | 0.619 | 0.997 | 0.842 | 0.369 | 0.501 | 1.18 | 0.378 | 0.413 | 0.471 | 0.392 | 0.624 | 0.781 | 0.445 | 0.422 | 0.655 | 0.449 |
| TQKLAYMELQQ [CENPF_Y700] | 0.931 | 0.934 | 1.17 | 0.52 | 0.776 | 0.482 | 0.455 | 0.527 | 0.629 | 0.509 | 0.794 | 0.94 | 0.596 | 0.454 | 0.907 | 0.513 |
| TRSFDYTEGGD [FGF7_Y58_M59T_YF] | 0.513 | 0.87 | 0.494 | 0.501 | 1.23 | 0.569 | 0.513 | 0.503 | 0.625 | 0.431 | 0.975 | 0.659 | 0.52 | 0.519 | 1.19 | 0.572 |
| TRVMEYISRLD [CLTCL1_Y1043] | 0.655 | 1.03 | 0.931 | 0.511 | 0.762 | 0.35 | 0.381 | 0.325 | 0.44 | 0.358 | 0.637 | 0.565 | 0.344 | 0.449 | 0.694 | 0.353 |
| TSESSYFKSLN [NGEF_Y288_A286S_YF] | 0.437 | 0.776 | 0.553 | 0.455 | 0.766 | 0.433 | 0.395 | 0.362 | 0.705 | 0.411 | 0.67 | 0.636 | 0.41 | 0.37 | 0.91 | 0.436 |
| TSFSGYRFHRH [NKAPL_Y94_YF] | 0.942 | 1.28 | 1.01 | 0.515 | 0.558 | 0.429 | 0.472 | 0.452 | 0.677 | 0.579 | 0.546 | 0.601 | 0.44 | 0.471 | 0.788 | 0.384 |
| TSSAGYRRTPS [ABI1_Y333_G331A] | 0.45 | 1.03 | 0.405 | 0.446 | 0.565 | 0.42 | 0.484 | 0.392 | 0.491 | 0.444 | 0.476 | 0.576 | 0.499 | 0.497 | 0.594 | 0.36 |
| TTKGAYSLSVR [YES1_Y194_I198V] | 0.402 | 0.768 | 0.558 | 0.483 | 0.894 | 0.404 | 0.317 | 0.364 | 0.548 | 0.376 | 0.511 | 0.517 | 0.405 | 0.5 | 0.73 | 0.403 |
| TTKGSYSLSVR [HCK_Y180] | 0.51 | 0.876 | 0.664 | 0.433 | 0.674 | 0.448 | 0.461 | 0.455 | 0.582 | 0.568 | 1.04 | 0.624 | 0.558 | 0.43 | 0.727 | 0.388 |
| TVHCDYLNISH [TAF1L_Y1385_P1389S] | 0.567 | 1.17 | 0.58 | 0.562 | 1.1 | 1.55 | 0.451 | 0.373 | 1.69 | 0.588 | 1.29 | 0.663 | 2.38 | 0.634 | 1.04 | 0.546 |
| TVHPGYGFLSE [PCCA_Y143_A138T] | 0.433 | 0.941 | 0.962 | 0.488 | 0.717 | 0.455 | 0.384 | 0.396 | 0.478 | 0.566 | 0.676 | 0.529 | 0.393 | 0.467 | 0.747 | 0.425 |
| TVQVAYFTVMM [SPATA17_Y83_M86V_YF] | 0.415 | 0.775 | 0.651 | 0.61 | 1.44 | 0.838 | 0.595 | 0.486 | 1.09 | 0.666 | 1.3 | 0.921 | 0.729 | 0.758 | 1.55 | 0.842 |
| TVSQPYSFIEF [SEC22B_Y110_R108Q] | 9.41 | 1.06 | 10.1 | 3.08 | 1.29 | 0.878 | 4.91 | 8.32 | 8.47 | 5.66 | 0.933 | 0.805 | 11.5 | 0.54 | 3.48 | 19.4 |
